The record followed here is PMC7327498, “Structural basis of semaphorin‐plexin cis interaction” (The EMBO Journal, 2020).

One experiment concerns the target T1, Sema1b_(ecto)‐mutA (Drosophila melanogaster, UniProt Q7KK54 37-659, F203E | Q219R | K223E).
T1 sequence: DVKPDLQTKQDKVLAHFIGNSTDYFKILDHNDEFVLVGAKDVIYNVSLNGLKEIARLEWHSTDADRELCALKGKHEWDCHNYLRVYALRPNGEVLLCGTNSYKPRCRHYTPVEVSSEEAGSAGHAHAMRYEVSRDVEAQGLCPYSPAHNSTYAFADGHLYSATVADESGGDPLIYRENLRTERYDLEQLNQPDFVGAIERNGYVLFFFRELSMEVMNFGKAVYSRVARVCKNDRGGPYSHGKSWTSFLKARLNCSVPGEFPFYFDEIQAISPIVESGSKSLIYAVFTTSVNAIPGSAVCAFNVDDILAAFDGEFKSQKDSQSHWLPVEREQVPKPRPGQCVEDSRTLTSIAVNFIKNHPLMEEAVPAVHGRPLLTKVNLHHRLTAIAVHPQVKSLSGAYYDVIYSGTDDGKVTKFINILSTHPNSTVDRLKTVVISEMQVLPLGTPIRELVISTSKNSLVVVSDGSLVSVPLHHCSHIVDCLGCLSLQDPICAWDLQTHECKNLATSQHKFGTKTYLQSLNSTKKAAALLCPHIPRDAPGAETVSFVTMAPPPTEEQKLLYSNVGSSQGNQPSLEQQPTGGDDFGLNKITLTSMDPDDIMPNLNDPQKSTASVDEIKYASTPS
As to the kind of experiment: MST.

The target in the next experiment is T2, Sema1b_(ecto)‐mutB (Drosophila melanogaster, UniProt Q7KK54 37-659, loop 350–367 was replaced with 18 alanine residues).
T2 sequence: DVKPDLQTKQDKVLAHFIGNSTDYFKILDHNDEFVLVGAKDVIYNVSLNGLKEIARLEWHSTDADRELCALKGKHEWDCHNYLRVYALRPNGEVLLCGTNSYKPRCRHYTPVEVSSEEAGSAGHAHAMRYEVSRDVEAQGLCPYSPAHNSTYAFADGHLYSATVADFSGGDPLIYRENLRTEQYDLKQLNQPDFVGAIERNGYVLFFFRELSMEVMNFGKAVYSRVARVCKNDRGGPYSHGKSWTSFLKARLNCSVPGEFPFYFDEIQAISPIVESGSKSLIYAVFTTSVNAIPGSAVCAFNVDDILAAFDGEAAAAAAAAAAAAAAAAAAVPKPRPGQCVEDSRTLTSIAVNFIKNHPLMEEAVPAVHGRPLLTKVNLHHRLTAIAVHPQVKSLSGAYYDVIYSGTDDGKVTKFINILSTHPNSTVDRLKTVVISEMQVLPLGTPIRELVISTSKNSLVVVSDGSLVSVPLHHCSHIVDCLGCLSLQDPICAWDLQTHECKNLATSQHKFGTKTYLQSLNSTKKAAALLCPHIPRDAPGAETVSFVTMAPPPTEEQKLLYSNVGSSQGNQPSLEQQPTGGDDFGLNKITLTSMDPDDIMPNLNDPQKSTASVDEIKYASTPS
As to the kind of experiment: MST.

In another experiment the target is T3, PlexA1‐4 (Drosophila melanogaster, UniProt Q9V491 28-730).
T3 construct: Plexin A (PlexA), Drosophila melanogaster, domains 1-4 (sema, PSI1, IPT1, PSI2), residues 28–730; also called PlexA domains 1-4; source: HEK 293T, transient transfection, purified (HisTrap, SEC); for crystallisation made with kifunensine, not deglycosylated
T3 sequence (looked up): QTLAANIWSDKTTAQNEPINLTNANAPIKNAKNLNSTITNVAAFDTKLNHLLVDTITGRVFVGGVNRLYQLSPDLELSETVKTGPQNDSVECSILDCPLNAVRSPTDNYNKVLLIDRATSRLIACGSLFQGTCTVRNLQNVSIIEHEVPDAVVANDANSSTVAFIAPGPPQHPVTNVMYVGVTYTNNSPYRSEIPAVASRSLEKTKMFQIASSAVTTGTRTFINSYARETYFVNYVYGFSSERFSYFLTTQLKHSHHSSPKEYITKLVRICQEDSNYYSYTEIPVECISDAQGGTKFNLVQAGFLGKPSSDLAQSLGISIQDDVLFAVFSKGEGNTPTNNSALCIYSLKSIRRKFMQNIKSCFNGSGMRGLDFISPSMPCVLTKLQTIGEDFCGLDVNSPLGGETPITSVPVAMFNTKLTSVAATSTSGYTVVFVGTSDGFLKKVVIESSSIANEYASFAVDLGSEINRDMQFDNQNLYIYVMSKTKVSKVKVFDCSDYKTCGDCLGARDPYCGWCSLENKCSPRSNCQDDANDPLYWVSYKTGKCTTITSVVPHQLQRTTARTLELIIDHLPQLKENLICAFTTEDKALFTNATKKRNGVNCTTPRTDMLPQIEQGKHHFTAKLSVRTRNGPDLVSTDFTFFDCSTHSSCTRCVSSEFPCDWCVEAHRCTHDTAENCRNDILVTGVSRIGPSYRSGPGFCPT
As to the kind of experiment: SEC-MALS; Superdex 200 10/300, 15 mM HEPES pH 7.8, 150 mM NaCl; single proteins injected at 2.0, 1.0 and 0.5 mg/ml; equimolar mixture of Sema1b1‐2 and PlexA1‐4. As to conditions: both partners purified.

B1: PlexA1‐4‐mVenus (domain or fragment)
chain: QTLAANIWSDKTTAQNEPINLTNANAPIKNAKNLNSTITNVAAFDTKLNHLLVDTITGRVFVGGVNRLYQLSPDLELSETVKTGPQNDSVECSILDCPLNAVRSPTDNYNKVLLIDRATSRLIACGSLFQGTCTVRNLQNVSIIEHEVPDAVVANDANSSTVAFIAPGPPQHPVTNVMYVGVTYTNNSPYRSEIPAVASRSLEKTKMFQIASSAVTTGTRTFINSYARETYFVNYVYGFSSERFSYFLTTQLKHSHHSSPKEYITKLVRICQEDSNYYSYTEIPVECISDAQGGTKFNLVQAGFLGKPSSDLAQSLGISIQDDVLFAVFSKGEGNTPTNNSALCIYSLKSIRRKFMQNIKSCFNGSGMRGLDFISPSMPCVLTKLQTIGEDFCGLDVNSPLGGETPITSVPVAMFNTKLTSVAATSTSGYTVVFVGTSDGFLKKVVIESSSIANEYASFAVDLGSEINRDMQFDNQNLYIYVMSKTKVSKVKVFDCSDYKTCGDCLGARDPYCGWCSLENKCSPRSNCQDDANDPLYWVSYKTGKCTTITSVVPHQLQRTTARTLELIIDHLPQLKENLICAFTTEDKALFTNATKKRNGVNCTTPRTDMLPQIEQGKHHFTAKLSVRTRNGPDLVSTDFTFFDCSTHSSCTRCVSSEFPCDWCVEAHRCTHDTAENCRNDILVTGVSRIGPSYRSGPGFCPT
As to B1, the Kd with Sema1b_(ecto)‐mutA turned out to be 1.24 µM; in the experiment with Sema1b_(ecto)‐mutB it was 0.074 µM.

B2: Sema1b1‐2 (domain or fragment, Drosophila melanogaster, UniProt Q7KK54 37-602, looked up)
chain: DVKPDLQTKQDKVLAHFIGNSTDYFKILDHNDEFVLVGAKDVIYNVSLNGLKEIARLEWHSTDADRELCALKGKHEWDCHNYLRVYALRPNGEVLLCGTNSYKPRCRHYTPVEVSSEEAGSAGHAHAMRYEVSRDVEAQGLCPYSPAHNSTYAFADGHLYSATVADFSGGDPLIYRENLRTEQYDLKQLNQPDFVGAIERNGYVLFFFRELSMEVMNFGKAVYSRVARVCKNDRGGPYSHGKSWTSFLKARLNCSVPGEFPFYFDEIQAISPIVESGSKSLIYAVFTTSVNAIPGSAVCAFNVDDILAAFDGEFKSQKDSQSHWLPVEREQVPKPRPGQCVEDSRTLTSIAVNFIKNHPLMEEAVPAVHGRPLLTKVNLHHRLTAIAVHPQVKSLSGAYYDVIYSGTDDGKVTKFINILSTHPNSTVDRLKTVVISEMQVLPLGTPIRELVISTSKNSLVVVSDGSLVSVPLHHCSHIVDCLGCLSLQDPICAWDLQTHECKNLATSQHKFGTKTYLQSLNSTKKAAALLCPHIPRDAPGAETVSFVTMAPPPTEEQKLLYSNVGS
notes: Semaphorin 1b (Sema1b), Drosophila melanogaster, domains 1-2 (sema, PSI), residues 37–602; also called Sema1b sema-PSI fragment; source: HEK 293T, transient transfection, purified (HisTrap, SEC); for crystallisation made with kifunensine and treated with endoglycosidase F1
Consider B2, for which, in the experiment with PlexA1‐4, the “stoichiometry N” value is 1.

By Kd is commonly meant the free concentration of one partner at which half of the binding sites on the other are occupied at equilibrium, for simple one-to-one binding. Low readings indicate a tighter complex, high ones a looser complex. A word on the stoichiometry N: it is the number of molecules, sites or subunits per partner or assembly.
